Reference: paper PMC3328272, “HIV-1 Nef interaction influences the ATP-binding site of the Src-family kinase, Hck” (BMC Chemical Biology, 2012)

Biological target: T1, HIV-1 Nef-SF2, untagged (HIV-1 (SF2), UniProt P03407)
T1 construct: also called Nef (B-clade allele SF2); source: E. coli, purified without N-terminal His tag (anion exchange HiPrep Q FF, gel filtration Superdex 75)
Experiment: SPR
Settings: both partners purified

T1 sequence (P03407 whole entry): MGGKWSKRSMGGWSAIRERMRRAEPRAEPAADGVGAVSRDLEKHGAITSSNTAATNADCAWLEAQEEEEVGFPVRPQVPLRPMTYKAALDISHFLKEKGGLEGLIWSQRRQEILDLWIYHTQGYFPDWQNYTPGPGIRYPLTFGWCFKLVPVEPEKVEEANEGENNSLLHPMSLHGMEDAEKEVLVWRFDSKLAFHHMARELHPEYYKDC

B1: wild-type human Hck SH3 domain (domain or fragment)
chain: not shown
notes: also called hHck SH3; source: E. coli BL21(DE3)pLysS, purified (anion exchange, IMAC, size-exclusion chromatography)
With B1 the Kd was 70 ± 10 nM, the koff was 0.0118 ± 0.04 s⁻¹ and the kon was 160000 ± 0.06 M⁻¹ s⁻¹.

B2: wild-type mouse Hck SH3 domain (domain or fragment, UniProt P08103 76-136, looked up)
chain: SEDTIVVALYDYEAIHREDLSFQKGDQMVVLEEAGEWWKARSLATKKEGYIPSNYVARVNS
notes: also called mHck SH3; mSH3; source: E. coli BL21(DE3)pLysS, purified (anion exchange, IMAC, size-exclusion chromatography)
B2 gave a Kd of 130 ± 30 nM, a koff of 0.07 ± 0.36 s⁻¹ and a kon of 554000 ± 1.77 M⁻¹ s⁻¹.
